Measured values taken from paper PMC12693692, “Benzodioxane-benzamides targeting bacterial cell division protein FtsZ potentially disrupt SlmA-mediated nucleoid occlusion and reversible biomolecular condensation” (International journal of biological macromolecules, 2025).

B1: SlmA (E. coli nucleoid occlusion protein), bound to its DNA site SBS (natural protein, UniProt P0C093 1-198, looked up)
chain: MAEKQTAKRNRREEILQSLALMLESSDGSQRITTAKLAASVGVSEAALYRHFPSKTRMFDSLIEFIEDSLITRINLILKDEKDTTARLRLIVLLLLGFGERNPGLTRILTGHALMFEQDRLQGRINQLFERIEAQLRQVLREKRMREGEGYTTDETLLASQILAFCEGMLSRFVRSEFKYRPTDDFDARWPLIAAQLQ
notes: SlmA, E. coli; the DNA is not a chain; also called SlmA-SBS; SlmA nucleoprotein complexes
B2: FtsZ (E. coli cell division protein, tubulin-like GTPase) (natural protein, UniProt P0A9A6 1-383, looked up)
chain: MFEPMELTNDAVIKVIGVGGGGGNAVEHMVRERIEGVEFFAVNTDAQALRKTAVGQTIQIGSGITKGLGAGANPEVGRNAADEDRDALRAALEGADMVFIAAGMGGGTGTGAAPVVAEVAKDLGILTVAVVTKPFNFEGKKRMAFAEQGITELSKHVDSLITIPNDKLLKVLGRGISLLDAFGAANDVLKGAVQGIAELITRPGLMNVDFADVRTVMSEMGYAMMGSGVASGEDRAEEAAEMAISSPLLEDIDLSGARGVLVNITAGFDLRLDEFETVGNTIRAFASDNATVVIGTSLDPDMNDELRVTVVATGIGMDKRPEITLVTNKQVQQPVMDRYQQHGMAPLTQEQKPVAKVVNDNAPQTAKEPDYLDIPAFLRKQAD
modifications: tracer fraction only (10-50 nM in 10 uM unlabeled FtsZ): Alexa Fluor 488 succinimidyl ester at the amino groups, 0.4-0.5 mol of dye per mole of protein
notes: FtsZ, E. coli; it is kept as the same molecule; Polymers were triggered with GTP; also called FtsZ-GTP; FtsZ polymers

How the values were obtained:
[1] = target: B2; assay: fluorescence polarisation; fluorescence anisotropy binding titration in solution: SlmA (1 uM) and SBS-Fl (10 nM) with increasing concentrations of FtsZ, right after 2 mM GTP; with or without 20 uM FZ95 or FZ100; 25 C; 50 mM Tris-HCl pH 7.5, 300 mM KCl, 5 mM MgCl2; 1:1 model, apparent parameters; conditions: both partners purified
[2] = target: the molecule itself; assay: fluorescence correlation spectroscopy; FtsZ 10 uM (10 nM FtsZ-Alexa 488 as tracer), with 2 mM GTP and regeneration system against no GTP; dilute solution buffer; self-association into polymers

binding result [1]	Binder	binding result [2]
binds	B1	
	B2	binds
